# Assay results: patent US20240117018A1
# Key:
# Experiment in all cases: cell-based or functional assay
# [1] = target: HIV-1 Env of pseudovirus 1006_11_C3_1601 (HIV-1)
# [2] = target: HIV-1 Env of pseudovirus 231965.c01 (HIV-1)
# [3] = target: HIV-1 Env of pseudovirus 249M B10 (HIV-1)
# [4] = target: HIV-1 Env of pseudovirus 3016.v5.c45 (HIV-1)
# [5] = target: HIV-1 Env of pseudovirus 620345.c01 (HIV-1)
# [6] = target: HIV-1 Env of pseudovirus 62357_14_D3_4589 (HIV-1)
# [7] = target: HIV-1 Env of pseudovirus 6535.3 (HIV-1)
# [8] = target: HIV-1 Env of pseudovirus 6545.v4.c1 (HIV-1)
# [9] = target: HIV-1 Env of pseudovirus 6952.v1.c20 (HIV-1)
# [10] = target: HIV-1 Env of pseudovirus 9004SS_A3_4 (HIV-1)
# [11] = target: HIV-1 Env of pseudovirus A07412M1.vrc12 (HIV-1)
# [12] = target: HIV-1 Env of pseudovirus CAAN5342.A2 (HIV-1)
# [13] = target: HIV-1 Env of pseudovirus CAP210.2.00.E8 (HIV-1)
# [14] = target: HIV-1 Env of pseudovirus CNE19 (HIV-1)
# [15] = target: HIV-1 Env of pseudovirus CNE20 (HIV-1)
# [16] = target: HIV-1 Env of pseudovirus CNE21 (HIV-1)
# [17] = target: HIV-1 Env of pseudovirus Ce1176_A3 (HIV-1)
# [18] = target: HIV-1 Env of pseudovirus Ce703010054_2A2 (HIV-1)
# [19] = target: HIV-1 Env of pseudovirus Du156.12 (HIV-1)
# [20] = target: HIV-1 Env of pseudovirus HIV-0013095-2.11 (HIV-1)
# [21] = target: HIV-1 Env of pseudovirus HIV-001428-2.42 (HIV-1)
# [22] = target: HIV-1 Env of pseudovirus MS208.A1 (HIV-1)
# [23] = target: HIV-1 Env of pseudovirus Q23.17 (HIV-1)
# [24] = target: HIV-1 Env of pseudovirus Q259.d2.17 (HIV-1)
# [25] = target: HIV-1 Env of pseudovirus QH0692.42 (HIV-1)
# [26] = target: HIV-1 Env of pseudovirus REJO4541.67 (HIV-1)
# [27] = target: HIV-1 Env of pseudovirus SC05_8C11_2344 (HIV-1)
# [28] = target: HIV-1 Env of pseudovirus SC422661.8 (HIV-1)
# [29] = target: HIV-1 Env of pseudovirus T278-50 (HIV-1)
# [30] = target: HIV-1 Env of pseudovirus THRO4156.18 (HIV-1)
# [31] = target: HIV-1 Env of pseudovirus WEAU_d15_410_787 (HIV-1)
# [32] = target: HIV-1 Env of pseudovirus X1254_c3 (HIV-1)
# [33] = target: HIV-1 Env of pseudovirus ZM135M.PL10a (HIV-1)
# [34] = target: HIV-1 Env of pseudovirus ZM197M.PB7 (HIV-1)
# [35] = target: HIV-1 Env of pseudovirus ZM233M.PB6 (HIV-1)
# [36] = target: HIV-1 Env of pseudovirus ZM247v1(Rev-) (HIV-1)
substance,measurement,setting,value
N49P7.1 (antibody),IC50,[1],0.061 µg/mL
same,IC80,[1],0.193 µg/mL
same,MPI,[1],100
same,"IC50 (neutralisation, TZM.bl cells)",[2],0.106 µg/mL
same,"IC80 (neutralisation, TZM.bl cells)",[2],0.364 µg/mL
same,MPI,[2],100
same,IC50,[3],0.053 µg/mL
same,IC80,[3],0.225 µg/mL
same,MPI,[3],100
same,"IC50 (neutralisation, TZM.bl cells)",[4],0.559 µg/mL
same,"IC80 (neutralisation, TZM.bl cells)",[4],2.54 µg/mL
same,MPI,[4],100
same,IC50,[5],> 50 µg/mL
same,IC80,[5],> 50 µg/mL
same,MPI,[5],47
same,IC50,[6],0.028 µg/mL
same,IC80,[6],0.15 µg/mL
same,MPI,[6],100
same,IC50,[7],0.224 µg/mL
same,IC80,[7],0.715 µg/mL
same,MPI,[7],100
same,"IC50 (neutralisation, TZM.bl cells)",[8],1.15 µg/mL
same,"IC80 (neutralisation, TZM.bl cells)",[8],16 µg/mL
same,MPI,[8],92
same,"IC50 (neutralisation, TZM.bl cells)",[9],26.3 µg/mL
same,"IC80 (neutralisation, TZM.bl cells)",[9],> 50 µg/mL
same,MPI,[9],71
same,IC50,[10],0.221 µg/mL
same,IC80,[10],0.841 µg/mL
same,MPI,[10],100
same,"IC50 (neutralisation, TZM.bl cells)",[11],0.232 µg/mL
same,"IC80 (neutralisation, TZM.bl cells)",[11],1.07 µg/mL
same,MPI,[11],100
same,IC50,[12],0.55 µg/mL
same,IC80,[12],1.59 µg/mL
same,MPI,[12],100
same,IC50,[13],2.03 µg/mL
same,IC80,[13],7.3 µg/mL
same,MPI,[13],99
same,IC50,[14],0.027 µg/mL
same,IC80,[14],0.128 µg/mL
same,MPI,[14],100
same,IC50,[15],0.079 µg/mL
same,IC80,[15],0.224 µg/mL
same,MPI,[15],100
same,IC50,[16],1.58 µg/mL
same,IC80,[16],12.2 µg/mL
same,MPI,[16],96
same,IC50,[17],0.279 µg/mL
same,IC80,[17],1.01 µg/mL
same,MPI,[17],100
same,IC50,[18],0.085 µg/mL
same,IC80,[18],0.364 µg/mL
same,MPI,[18],100
same,IC50,[19],0.045 µg/mL
same,IC80,[19],0.131 µg/mL
same,MPI,[19],100
same,IC50,[20],0.105 µg/mL
same,IC80,[20],0.374 µg/mL
same,MPI,[20],100
same,IC50,[21],0.009 µg/mL
same,IC80,[21],0.029 µg/mL
same,MPI,[21],100
same,IC50,[22],0.12 µg/mL
same,IC80,[22],0.431 µg/mL
same,MPI,[22],100
same,IC50,[23],0.077 µg/mL
same,IC80,[23],0.208 µg/mL
same,MPI,[23],100
same,IC50,[24],0.505 µg/mL
same,IC80,[24],4.23 µg/mL
same,MPI,[24],97
same,IC50,[25],0.764 µg/mL
same,IC80,[25],2.71 µg/mL
same,MPI,[25],100
same,IC50,[26],0.022 µg/mL
same,IC80,[26],0.088 µg/mL
same,MPI,[26],100
same,IC50,[27],0.189 µg/mL
same,IC80,[27],0.688 µg/mL
same,MPI,[27],100
same,IC50,[28],0.125 µg/mL
same,IC80,[28],0.417 µg/mL
same,MPI,[28],100
same,IC50,[29],42.4 µg/mL
same,IC80,[29],> 50 µg/mL
same,MPI,[29],56
same,IC50,[30],3.07 µg/mL
same,IC80,[30],12.6 µg/mL
same,MPI,[30],98
same,IC50,[31],0.058 µg/mL
same,IC80,[31],0.142 µg/mL
same,MPI,[31],100
same,IC50,[32],3.96 µg/mL
same,IC80,[32],18.2 µg/mL
same,MPI,[32],96
same,IC50,[33],0.314 µg/mL
same,IC80,[33],1.11 µg/mL
same,MPI,[33],99
same,IC50,[34],0.144 µg/mL
same,IC80,[34],0.539 µg/mL
same,MPI,[34],100
same,IC50,[35],0.355 µg/mL
same,IC80,[35],1.25 µg/mL
same,MPI,[35],100
same,IC50,[36],0.038 µg/mL
same,IC80,[36],0.176 µg/mL
same,MPI,[36],100
3BNC117 (antibody),IC50,[1],0.03 µg/mL
same,IC80,[1],0.1 µg/mL
same,IC50,[3],0.1 µg/mL
same,IC80,[3],0.4 µg/mL
same,IC50,[6],0.06 µg/mL
same,IC80,[6],0.26 µg/mL
same,IC50,[7],0.55 µg/mL
same,IC80,[7],2.44 µg/mL
same,IC50,[10],0.07 µg/mL
same,IC80,[10],0.18 µg/mL
same,IC50,[12],0.42 µg/mL
same,IC80,[12],1.51 µg/mL
same,IC50,[13],17.2 µg/mL
same,IC80,[13],> 50 µg/mL
same,IC50,[14],0.02 µg/mL
same,IC80,[14],0.08 µg/mL
same,IC50,[15],> 50 µg/mL
same,IC80,[15],> 50 µg/mL
same,IC50,[16],45.4 µg/mL
same,IC80,[16],> 50 µg/mL
same,IC50,[17],0.22 µg/mL
same,IC80,[17],0.75 µg/mL
same,IC50,[18],0.37 µg/mL
same,IC80,[18],1.67 µg/mL
same,IC50,[19],0.02 µg/mL
same,IC80,[19],0.08 µg/mL
same,IC50,[20],0.33 µg/mL
same,IC80,[20],2.53 µg/mL
same,IC50,[21],0.003 µg/mL
same,IC80,[21],0.02 µg/mL
same,IC50,[22],0.01 µg/mL
same,IC80,[22],0.09 µg/mL
same,IC50,[23],0.005 µg/mL
same,IC80,[23],0.02 µg/mL
same,IC50,[24],0.01 µg/mL
same,IC80,[24],0.05 µg/mL
same,IC50,[25],0.13 µg/mL
same,IC80,[25],0.49 µg/mL
same,IC50,[26],0.01 µg/mL
same,IC80,[26],0.05 µg/mL
same,IC50,[27],0.15 µg/mL
same,IC80,[27],0.51 µg/mL
same,IC50,[28],0.02 µg/mL
same,IC80,[28],0.08 µg/mL
same,IC50,[30],1.76 µg/mL
same,IC80,[30],10.1 µg/mL
same,IC50,[31],0.05 µg/mL
same,IC80,[31],0.19 µg/mL
same,IC50,[33],0.03 µg/mL
same,IC80,[33],0.13 µg/mL
same,IC50,[34],0.22 µg/mL
same,IC80,[34],1.03 µg/mL
same,IC50,[35],0.13 µg/mL
same,IC80,[35],0.85 µg/mL
same,IC50,[36],> 50 µg/mL
same,IC80,[36],> 50 µg/mL
